Results on 3 molecules are retold here after article PMC8131196, “Structure and dynamics of a mycobacterial type VII secretion system” (Nature, 2021).

B1: MycP5 protease (enzyme)
chain: ISPPTIDPGALPPDGPPGPLAPMKQNAYCTEVGVLPGTDFQLQPKYMEMLNLNEAWQFGRGDGVKVAVIDTGVTPHPRLPRLIPGGDYVMAGGDGLSDCDAHGTLVASMIAAVPANGAVPLPSVPRRPVTIPTTETPPPPQTVTLSPVPPQTVTVIPAPPPEEGVPPGAPVPGPEPPPAPGPQPPAVDRGGGTVTVPSYSGGRKIAPIDNPRNPHPSAPSPALGPPPDAFSGIAPGVEIISIRQSSQAFGLKDPYTGDEDPQTAQKIDNVETMARAIVHAANMGASVINISDVMCMSARNVIDQRALGAAVHYAAVDKDAVIVAAAGDGSKKDCKQNPIFDPLQPDDPRAWNAVTTVVTPSWFHDYVLTVGAVDANGQPLSKMSIAGPWVSISAPGTDVVGLSPRDDGLINAIDGPDNSLLVPAGTSFSAAIVSGVAALVRAKFPELSAYQIINRLIHTARPPARGVDNQVGYGVVDPVAALTWDVPKGPAEPPKQLSAPLVVPQPPAPRDMVPIWVAAGGLAGALLIGGAVFGTATLMRRSRKQQ
notes: also called mycosin
B2: EccC5 (natural protein)
chain: MKRGFARPTPEKPPVIKPENIVLSTPLSIPPPEGKPWWLIVVGVVVVGLLGGMVAMVFASGSHVFGGIGSIFPLFMMVGIMMMMFRGMGGGQQQMSRPKLDAMRAQFMLMLDMLRETAQESADSMDANYRWFHPAPNTLAAAVGSPRMWERKPDGKDLNFGVVRVGVGMTRPEVTWGEPQNMPTDIELEPVTGKALQEFGRYQSVVYNLPKMVSLLVEPWYALVGEREQVLGLMRAIICQLAFSHGPDHVQMIVVSSDLDQWDWVKWLPHFGDSRRHDAAGNARMVYTSVREFAAEQAELFAGRGSFTPRHASSSAQTPTPHTVIIADVDDPQWEYVISAEGVDGVTFFDLTGSSMWTDIPERKLQFDKTGVIEALPRDRDTWMVIDDKAWFFALTDQVSIAEAEEFAQKLAQWRLAEAYEEIGQRVAHIGARDILSYYGIDDPGNIDFDSLWASRTDTMGRSRLRAPFGNRSDNGELLFLDMKSLDEGGDGPHGVMSGTTGSGKSTLVRTVIESLMLSHPPEELQFVLADLKGGSAVKPFAGVPHVSRIITDLEEDQALMERFLDALWGEIARRKAICDSAGVDDAKEYNSVRARMRARGQDMAPLPMLVVVIDEFYEWFRIMPTAVDVLDSIGRQGRAYWIHLMMASQTIESRAEKLMENMGYRLVLKARTAGAAQAAGVPNAVNLPAQAGLGYFRKSLEDIIRFQAEFLWRDYFQPGVSIDGEEAPALVHSIDYIRPQLFTNSFTPLEVSVGGPDIEPVVAQPNGEVLESDDIEGGEDEDEEGVRTPKVGTVIIDQLRKIKFEPYRLWQPPLTQPVAIDDLVNRFLGRPWHKEYGSACNLVFPIGIIDRPYKHDQPPWTVDTSGPGANVLILGAGGSGKTTALQTLICSAALTHTPQQVQFYCLAYSSTALTTVSRIPHVGEVAGPTDPYGVRRTVAELLALVRERKRSFLECGIASMEMFRRRKFGGEAGPVPDDGFGDVYLVIDNYRALAEENEVLIEQVNVIINQGPSFGVHVVVTADRESELRPPVRSGFGSRIELRLAAVEDAKLVRSRFAKDVPVKPGRGMVAVNYVRLDSDPQAGLHTLVARPALGSTPDNVFECDSVVAAVSRLTSAQAPPVRRLPARFGVEQVRELASRDTRQGVGAGGIAWAISELDLAPVYLNFAENSHLMVTGRRECGRTTTLATIMSEIGRLYAPGASSAPPPAPGRPSAQVWLVDPRRQLLTALGSDYVERFAYNLDGVVAMMGELAAALAGREPPPGLSAEELLSRSWWSGPEIFLIVDDIQQLPPGFDSPLHKAVPFVNRAADVGLHVIVTRTFGGWSSAGSDPMLRALHQANAPLLVMDADPDEGFIRGKMKGGPLPRGRGLLMAEDTGVFVQVAATEVRR
notes: also called EccC5 ATPase; not shown: TwinStrep, C-terminal, kept

Common to all, as to assay: cryo-EM structure
Data set [1] deals with the molecule itself.
Data set [2] addresses B1. The conditions noted are these: both partners purified.
The target in data set [3] is B2. Conditions: both partners purified.

What is called stoichiometry N is a count of units in the complex or per binding partner. On to B1, for which the “stoichiometry N” value in data set [1] amounted to 3. Turning to B2, the binding result in data set [1] is given as “binds”.

B3: EccB5 (natural protein)
chain: MAEESRGQRGSGYGLGLSTRTQVTGYQFLARRTAMALTRWRVRMEIEPGRRQTLAVVASVSAALVICLGALLWSFISPSGQLNESPIIADRDSGALYVRVGDRLYPALNLASARLITGRPDNPHLVRSSQIATMPRGPLVGIPGAPSSFSPKSPPASSWLVCDTVATSSSIGSLQGVTVTVIDGTPDLTGHRQILSGSDAVVLRYGGDAWVIREGRRSRIEPTNRAVLLPLGLTPEQVSQARPMSRALFDALPVGPELLVPEVPNAGGPATFPGAPGPIGTVIVTPQISGPQQYSLVLGDGVQTLPPLVAQILQNAGSAGNTKPLTVEPSTLAKMPVVNRLDLSAYPDNPLEVVDIREHPSTCWWWERTAGENRARVRVVSGPTIPVAATEMNKVVSLVKADTSGRQADQVYFGPDHANFVAVTGNNPGAQTSESLWWVTDAGARFGVEDSKEARDALGLTLTPSLAPWVALRLLPQGPTLSRADALVEHDTLPMDMTPAELVVPK
notes: also called inner EccB5; outer EccB5
Consider B3, for which the binding result in data set [2] and in data set [3] was “binds” in each case. Besides, in data set [1], the “stoichiometry N” value stood at 6.
